According to patent publication EP1192182B1, “PITUITARY ADENYLATE CYCLASE ACTIVATING PEPTIDE (PACAP) RECEPTOR 3 (R3) AGONISTS AND THEIR PHARMACOLOGICAL METHODS OF USE” (priority 1999, dated 2001):
Non-standard residues stand in square brackets, D forms with d. No end group written: not given here. Nle = CCCC[C@H](N)C(=O)O

T1: human PACAP/VIP R2 (PACAP R3) receptor (human, UniProt P41587 24-438)
T1 sequence (looked up): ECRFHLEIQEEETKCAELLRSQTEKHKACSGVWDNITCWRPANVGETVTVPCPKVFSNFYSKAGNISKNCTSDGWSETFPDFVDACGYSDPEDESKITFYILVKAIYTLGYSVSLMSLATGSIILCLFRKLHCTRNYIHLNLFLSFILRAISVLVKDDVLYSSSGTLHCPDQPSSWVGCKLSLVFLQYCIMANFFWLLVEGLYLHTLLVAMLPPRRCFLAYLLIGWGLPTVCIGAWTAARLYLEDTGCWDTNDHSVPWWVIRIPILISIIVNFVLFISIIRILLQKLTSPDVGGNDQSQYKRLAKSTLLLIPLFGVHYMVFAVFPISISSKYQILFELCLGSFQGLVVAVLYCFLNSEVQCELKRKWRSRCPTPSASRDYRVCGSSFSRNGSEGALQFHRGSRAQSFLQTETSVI

T2: PACAP-R3 (human, UniProt P41587 24-438)
T2 sequence (looked up): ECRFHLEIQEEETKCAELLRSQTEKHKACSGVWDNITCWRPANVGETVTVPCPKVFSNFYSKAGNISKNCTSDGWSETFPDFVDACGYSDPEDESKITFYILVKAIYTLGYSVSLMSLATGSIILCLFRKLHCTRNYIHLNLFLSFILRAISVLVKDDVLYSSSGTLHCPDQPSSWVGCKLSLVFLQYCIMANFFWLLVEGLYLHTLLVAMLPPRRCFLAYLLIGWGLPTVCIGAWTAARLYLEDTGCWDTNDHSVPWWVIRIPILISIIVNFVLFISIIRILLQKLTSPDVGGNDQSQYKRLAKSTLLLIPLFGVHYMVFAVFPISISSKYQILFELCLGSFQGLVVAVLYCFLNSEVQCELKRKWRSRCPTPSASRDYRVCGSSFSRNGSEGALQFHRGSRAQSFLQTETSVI


Target: T1, human PACAP/VIP R2 (PACAP R3) receptor
Assay: cell-based or functional assay

| R3 EC50, nM (cAMP SPA) [nM] | R3 Selectivity [ratio] | Binder |
| --- | --- | --- |
| 1.1 | 1.4 | HSDAVFTDNYTRLRKQMAAKKYLNSIKNRI-NH2 [PAC27] |
| 2.6 | 29 | HSDAVFTDDYTRLRKEVAAKKYLESIKDKRY [R3P172] |
| 0.5 | – | HSDAVFTDNYTRLRKQMAAKKYLNSIKNKQ [rR3P165] |
| 0.4 | 200 | HSDAVFTDNYTRLRKQVAAKKYLQSIKNKRYSWCEPGWCR [rR3P171] |
| 1 | – | HSDAVFTDNYTRLRKQMAAKKYLNSIKNKT [rR3P167] |
| 0.2 | – | HSDAVFTDNYTRLRKQMAAKKYLNSIKNKW [rR3P169] |
| 200 | – | ESDGIFTDSYSRYRKQMAVKKYLAAVL [R3P173] |

Target: T2, PACAP-R3
Assay: cell-based or functional assay

| R3 EC50 [nM] | R3 Selectivity [ratio] | Binder |
| --- | --- | --- |
| 0.2 | 30 | HSDAVFTDNYTRLRKQMAAKKYLNSIKNNR [R3P143] |
| 0.2 | 500 | HSDAVFTDNYTRLRKQMAAKKYLNSIKNSR [R3P147] |
| – | 30 | HSDAVFTENYTKLRKQLAAKKYLNDLKKGGTSWCEPGWCR [R3P19] |
| – | 100 | HSDAVFTDNYTRLRKQMAVKKYLNSIKK [R3P41] |
| – | > 250 | Ac-HSDAVFTENYTKLRKQ[Nle]AAKKYLNDLKKGGT-NH2 [R3P0] |
| 0.2 | – | HSDAVFTDNYTRLRKQMAAKKYLNSIKNKL [R3P161] |
| 0.3 | 100 | HSDAVFTDNYTRLRKQMAAKKYLNSIKNTR [R3P148] |
| 1 | 100 | HSDAVFTDNYTRLRKQMAAKKYLNSIKNKF [R3P156] |
| – | > 40 | HSDAVFTDNYTRLRKQLAAKKYLNDIKKNQ [R3P35] |
| – | 10 | HSDAVFTDNYTRLRKQMAVKKYLNSIKN [R3P42] |
| – | 30 | HSDAVFTDNYTRLRKQMAAKKYLNSIKNMR [R3P142] |
| – | > 200 | HSDAVFTDNYTRLRKQLAAKKYLNDIKK [R3P33] |
| 3 | 100 | HSDAVFTDNYTRLRKQMAAKKYLNSIKNPR [R3P144] |
| 0.5 | 80 | HSDAVFTDNYTRLRKQMAAKKYLNSIKNVR [R3P149] |
| – | 200 | HSDAVFTDNYTRLRKQLAAKKYLNDIKKG [R3P32] |
| – | 6 | HSDAVFTDNYTELRKQMAVKKYLNSILN [R3P44] |
| – | > 70 | HSDAVFTDNYTRLRKQLAAKKYLNDIKKQ [R3P34] |
| – | > 300 | HSDAVFTDNYTRLRKQLAAKKYLNDIKKGG [R3P31] |
| – | 10 | HSDAVFTDNYTRLRKQMAVKKYLNSILK [R3P43] |
| 0.5 | 400 | HSDAVFTDNYTRLRKQMAAKKYLNSIKNKI [R3P159] |

| R3 EC50 [nM] | R3 Selectivity [ratio] | Binder |
| --- | --- | --- |
| 0.3 | 170 | HSDAVFTDNYTRLRKQMAAKKYLNSIKNKG [R3P157] |
| 0.07 | 90 | HSDAVFTDNYTRLRKQMAAKKYLNSIKNKH [R3P158] |
| 0.3 | 100 | HSDAVFTDNYTRLRKQMAAKKYLNSIKNRR [R3P146] |
| – | > 50 | Ac-HSDAVFTENYTKLRKQLAAKKYLNDLKKGGT-NH2 [R3P1] |
| 0.8 | 50 | HSDAVFTDNYTRLRKQMAAKKYLNSIKNWR [R3P150] |
| – | 230 | HSDAVFTDNYTRLRKQMAAKKYLNDIKKGGT [R3P20] |
| – | 24 | HSDAVFTDNYTRLRKQLAAKKYLNSIKKGGT [R3P22] |
| – | 50 | HSDAVFTDNYTRLRKQLAAKKYLNSIKNGGT [R3P30] |
| – | 34 | HSDAVFTDNYTRLRKQLAAKKYLNDIKNGGT [R3P24] |
| – | 20 | HSDAVFTDNYTRLRKQLAVKKYLNSIKKGGT [R3P25] |
| – | > 200 | HSDAVFTDNYTRLRKQLAVKKYLNDIKNGGT [R3P29] |
| – | > 180 | HSDAVFTDNYTRLRKQMAAKKYLNSIKKGGT [R3P26] |
| – | 60 | HSDAVFTDNYTRLRKQLAVKKYLNDIKKGGT [R3P21] |
| 0.5 | 100 | HSDAVFTDNYTRLRKQMAAKKYLNSIKNQR [R3P145] |
| 0.3 | – | HSDAVFTDNYTRLRKQMAAKKYLNSIKNKP [R3P164] |
| 0.4 | 100 | HSDAVFTDNYTRLRKQMAAKKYLNSIKNKE [R3P155] |
| 0.2 | 200 | HSDAVFTDNYTRLRKQMAAKKYLNSIKNKD [R3P153] |
| 0.2 | 200 | HSDAVFTDNYTRLRKQMAAKKYLNSIKNKN [R3P163] |
| – | 500 | HSDAVFTDNYTRLRKQMAAKKYLNSIKNKK [R3P160] |
| – | > 200 | HSDAVFTDNYTRLRKQLAAKKYLNDIKKKRY [R3P36] |
